# Molecular target: T1, FANCD2 (human, UniProt Q9BXW9 1-1451)
# T1 construct: The cryo-EM methods say only 'purified FANCD2'; The ubiquitination and deubiquitination reactions used N-terminally FLAG-tagged FANCD2; the functional rows use this molecule for it (for the USP1 rows in its K561-ubiquitinated form, D2Ub); Constructs as in Arkinson et al 2018 and Rennie et al 2020; also called D2^WT; source: Sf21 insect cells, purified (NiNTA, anion exchange, gel filtration)
# Test: cryo-EM structure; ubiquitinated His6-V5-FANCI mixed with FANCD2 at 1:1 molar ratio, 61 bp dsDNA added at 1:1; 20 mM Tris pH 8.0, 150 mM NaCl, 2 mM DTT; 4.1 Å global resolution
# Conditions: both partners purified
# T1 sequence (Q9BXW9 whole entry): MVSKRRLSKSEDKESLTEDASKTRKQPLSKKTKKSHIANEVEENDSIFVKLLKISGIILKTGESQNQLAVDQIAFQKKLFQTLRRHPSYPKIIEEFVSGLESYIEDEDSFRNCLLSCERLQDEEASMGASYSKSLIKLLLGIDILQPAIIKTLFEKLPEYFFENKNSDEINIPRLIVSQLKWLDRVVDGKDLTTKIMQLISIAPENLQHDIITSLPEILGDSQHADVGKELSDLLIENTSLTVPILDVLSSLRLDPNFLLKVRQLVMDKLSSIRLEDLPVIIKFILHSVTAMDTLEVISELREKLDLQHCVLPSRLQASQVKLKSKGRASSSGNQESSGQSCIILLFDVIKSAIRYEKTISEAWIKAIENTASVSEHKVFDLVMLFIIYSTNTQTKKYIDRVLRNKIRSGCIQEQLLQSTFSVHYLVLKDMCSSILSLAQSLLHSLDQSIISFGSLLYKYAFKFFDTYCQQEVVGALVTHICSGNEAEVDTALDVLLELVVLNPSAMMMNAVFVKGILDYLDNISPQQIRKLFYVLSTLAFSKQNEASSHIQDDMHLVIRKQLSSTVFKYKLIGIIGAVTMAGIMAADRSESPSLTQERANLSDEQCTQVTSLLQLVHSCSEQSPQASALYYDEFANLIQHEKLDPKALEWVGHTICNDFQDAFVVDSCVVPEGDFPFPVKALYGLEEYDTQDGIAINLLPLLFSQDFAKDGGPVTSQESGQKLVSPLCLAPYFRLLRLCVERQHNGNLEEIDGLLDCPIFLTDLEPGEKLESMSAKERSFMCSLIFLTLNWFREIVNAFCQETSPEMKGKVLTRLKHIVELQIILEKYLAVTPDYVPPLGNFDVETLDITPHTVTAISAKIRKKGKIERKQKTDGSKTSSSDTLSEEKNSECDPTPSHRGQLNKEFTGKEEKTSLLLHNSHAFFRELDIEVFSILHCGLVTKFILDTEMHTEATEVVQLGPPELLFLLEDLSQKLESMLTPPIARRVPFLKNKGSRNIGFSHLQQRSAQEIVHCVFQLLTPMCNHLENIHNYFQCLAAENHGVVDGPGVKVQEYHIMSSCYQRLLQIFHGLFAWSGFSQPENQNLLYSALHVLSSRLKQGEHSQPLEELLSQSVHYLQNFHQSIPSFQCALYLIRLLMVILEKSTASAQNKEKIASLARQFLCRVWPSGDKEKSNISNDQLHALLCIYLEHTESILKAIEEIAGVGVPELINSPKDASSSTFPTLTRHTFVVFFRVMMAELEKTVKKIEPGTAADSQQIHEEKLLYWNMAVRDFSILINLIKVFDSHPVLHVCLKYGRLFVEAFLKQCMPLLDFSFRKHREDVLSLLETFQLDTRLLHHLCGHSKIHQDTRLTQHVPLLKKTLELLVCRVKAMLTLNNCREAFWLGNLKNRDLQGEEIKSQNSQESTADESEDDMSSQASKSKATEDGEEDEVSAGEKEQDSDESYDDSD
binder,measurement,value
"FANCI (the FANCI chain of ubiquitinated His6‐V5‐FANCI) (natural protein, human, UniProt Q9NVI1 1-1328, looked up, K523 isopeptide-linked to G76 of ubiquitin, The FANCI chain of m1, written on its own for its contacts with FANCD2 in the structure; source: Sf21 insect cells, purified (NiNTA, anion exchange, gel filtration); ubiquitinated in vitro; not shown: His6, N-terminal, kept; V5, N-terminal, kept) MDQKILSLAAEKTADKLQEFLQTLREGDLTNLLQNQAVKGKVAGALLRAIFKGSPCSEEAGTLRRRKIYTCCIQLVESGDLQKEIASEIIGLLMLEAHHFPGPLLVELANEFISAVREGSLVNGKSLELLPIILTALATKKENLAYGKGVLSGEECKKQLINTLCSGRWDQQYVIQLTSMFKDVPLTAEEVEFVVEKALSMFSKMNLQEIPPLVYQLLVLSSKGSRKSVLEGIIAFFSALDKQHNEEQSGDELLDVVTVPSGELRHVEGTIILHIVFAIKLDYELGRELVKHLKVGQQGDSNNNLSPFSIALLLSVTRIQRFQDQVLDLLKTSVVKSFKDLQLLQGSKFLQNLVPHRSYVSTMILEVVKNSVHSWDHVTQGLVELGFILMDSYGPKKVLDGKTIETSPSLSRMPNQHACKLGANILLETFKIHEMIRQEILEQVLNRVVTRASSPISHFLDLLSNIVMYAPLVLQSCSSKVTEAFDYLSFLPLQTVQRLLKAVQPLLKVSMSMRDCLILVLRKAMFANQLDARKSAVAGFLLLLKNFKVLGSLSSSQCSQSLSVSQVHVDVHSHYNSVANETFCLEIMDSLRRCLSQQADVRLMLYEGFYDVLRRNSQLANSVMQTLLSQLKQFYEPKPDLLPPLKLEACILTQGDKISLQEPLDYLLCCIQHCLAWYKNTVIPLQQGEEEEEEEEAFYEDLDDILESITNRMIKSELEDFELDKSADFSQSTSIGIKNNICAFLVMGVCEVLIEYNFSISSFSKNRFEDILSLFMCYKKLSDILNEKAGKAKTKMANKTSDSLLSMKFVSSLLTALFRDSIQSHQESLSVLRSSNEFMRYAVNVALQKVQQLKETGHVSGPDGQNPEKIFQNLCDITRVLLWRYTSIPTSVEESGKKEKGKSISLLCLEGLQKIFSAVQQFYQPKIQQFLRALDVTDKEGEEREDADVSVTQRTAFQIRQFQRSLLNLLSSQEEDFNSKEALLLVTVLTSLSKLLEPSSPQFVQMLSWTSKICKENSREDALFCKSLMNLLFSLHVSYKSPVILLRDLSQDIHGHLGDIDQDVEVEKTNHFAIVNLRTAAPTVCLLVLSQAEKVLEEVDWLITKLKGQVSQETLSEEASSQATLPNQPVEKAIIMQLGTLLTFFHELVQTALPSGSCVDTLLKDLCKMYTTLTALVRYYLQVCQSSGGIPKNMEKLVKLSGSHLTPLCYSFISYVQNKSKSLNYTGEKKEKPAAVATAMARVLRETKPIPNLIFAIEQYEKFLIHLSKKSKVNLMQHMKLSTSRDFKIKGNILDMVLREDGEDENEEGTASEHGGQNKEPAKKKRKK",binding result,binds
